Consider two molecules from PMC3720256.

Common to all, as to assay: EMSA
Data set [1] deals with T1, Ryp2;Ryp3 (Histoplasma capsulatum …, UniProt B2CQK0;B2CQK1 1-404;1-373, |).
T1 sequence 1: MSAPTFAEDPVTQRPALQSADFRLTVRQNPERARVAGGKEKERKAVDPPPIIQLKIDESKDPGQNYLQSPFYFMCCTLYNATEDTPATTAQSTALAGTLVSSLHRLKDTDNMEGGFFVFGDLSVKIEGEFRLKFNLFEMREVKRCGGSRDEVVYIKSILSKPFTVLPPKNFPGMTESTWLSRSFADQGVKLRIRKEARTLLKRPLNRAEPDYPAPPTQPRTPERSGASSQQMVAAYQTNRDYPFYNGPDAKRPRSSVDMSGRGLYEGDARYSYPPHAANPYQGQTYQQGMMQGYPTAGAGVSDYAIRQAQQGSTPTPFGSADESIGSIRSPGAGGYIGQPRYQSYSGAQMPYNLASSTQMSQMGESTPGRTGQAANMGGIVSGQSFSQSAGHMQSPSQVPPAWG
T1 sequence 2: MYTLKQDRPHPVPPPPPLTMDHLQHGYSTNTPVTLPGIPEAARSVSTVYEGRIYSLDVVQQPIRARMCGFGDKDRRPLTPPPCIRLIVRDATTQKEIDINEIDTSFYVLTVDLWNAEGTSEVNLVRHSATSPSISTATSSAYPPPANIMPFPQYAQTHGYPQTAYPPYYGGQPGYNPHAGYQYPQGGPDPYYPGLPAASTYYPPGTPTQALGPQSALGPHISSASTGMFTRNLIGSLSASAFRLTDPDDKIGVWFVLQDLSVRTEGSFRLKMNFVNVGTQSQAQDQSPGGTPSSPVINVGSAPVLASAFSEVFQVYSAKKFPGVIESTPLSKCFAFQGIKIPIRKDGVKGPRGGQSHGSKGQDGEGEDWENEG
Conditions: protein: ivt;ivt; tags: C-terminal TEV site-6xHis;C-terminal TEV site-6xHis; copies: 1;1; label: 5'-IRDye800 (Fwd strand); blunt.

Data set [2] addresses Ryp1(N) (Histoplasma capsulatum G217B, UniProt A9QXX8 1-267). Conditions: protein: ivt; tags: C-terminal TEV site-6xHis; label: 5'-IRDye800 (Fwd strand); blunt.
The target of data set [3] is Ryp1 (Histoplasma capsulatum G217B, UniProt A9QXX8 1-487). Conditions: protein: ivt; tags: C-terminal TEV site-6xHis; label: 5'-IRDye800 (Fwd strand); blunt.

B1: CBP1 promoter Motif B probe (dsDNA)
DNA 1: ATCAGGCGTCCGATCAGGTGATTGCTTTTAACCTTGGGATCCAGAGATCTCTCTATCTTT
DNA 2: AAAGATAGAGAGATCTCTGGATCCCAAGGTTAAAAGCAATCACCTGATCGGACGCCTGAT
Take B1: the binding result in data set [1] is “binds”.

B2: CBP1 promoter Motif A probe (dsDNA)
DNA 1: TAATGGTTCCAGATTGAGTTTCGTTTAAAGTTCACAACTCAATTCGGCAGCTCCGCTGCA
DNA 2: TGCAGCGGAGCTGCCGAATTGAGTTGTGAACTTTAAACGAAACTCAATCTGGAACCATTA
For the molecule B2, the binding result in data set [2] and in data set [3] was “binds” in each case.
